Holding throughout (assay): SPR, KD relative to WT C2;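 note: biacore SPR at 37 °C, anti-C2 mAbs captured via immobilised goat anti-human IgG, C2 alanine or serine surface mutants as analytes, 1:1 model fitted, double-referenced sensograms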
(In SPR one partner is held on a chip, and binding of the other changes the refractive index at the surface.)

The target of one assay is T1, human C2 F689A (human, UniProt P06681 21-752).
T1 sequence: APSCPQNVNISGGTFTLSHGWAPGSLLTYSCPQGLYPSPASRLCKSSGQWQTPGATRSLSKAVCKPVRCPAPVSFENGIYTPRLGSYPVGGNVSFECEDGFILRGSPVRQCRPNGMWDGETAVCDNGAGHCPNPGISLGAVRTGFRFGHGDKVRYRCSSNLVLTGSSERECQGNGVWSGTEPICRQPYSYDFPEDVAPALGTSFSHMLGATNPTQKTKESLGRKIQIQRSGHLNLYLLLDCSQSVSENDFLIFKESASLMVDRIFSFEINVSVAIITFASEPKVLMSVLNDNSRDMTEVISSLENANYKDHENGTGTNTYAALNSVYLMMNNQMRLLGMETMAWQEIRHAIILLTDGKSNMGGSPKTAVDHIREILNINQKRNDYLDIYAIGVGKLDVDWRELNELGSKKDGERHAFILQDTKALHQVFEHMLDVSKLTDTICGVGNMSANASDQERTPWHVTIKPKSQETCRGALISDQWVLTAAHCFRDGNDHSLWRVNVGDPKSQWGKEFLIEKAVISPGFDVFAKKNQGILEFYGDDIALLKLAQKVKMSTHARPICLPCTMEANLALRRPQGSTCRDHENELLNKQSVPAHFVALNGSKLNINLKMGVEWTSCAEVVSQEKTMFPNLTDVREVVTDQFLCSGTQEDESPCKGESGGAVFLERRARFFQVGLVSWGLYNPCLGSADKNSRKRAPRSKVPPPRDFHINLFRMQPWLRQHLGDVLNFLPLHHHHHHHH

Another assay has as its target T2, human C2 M316A (human, UniProt P06681 21-752).
T2 sequence: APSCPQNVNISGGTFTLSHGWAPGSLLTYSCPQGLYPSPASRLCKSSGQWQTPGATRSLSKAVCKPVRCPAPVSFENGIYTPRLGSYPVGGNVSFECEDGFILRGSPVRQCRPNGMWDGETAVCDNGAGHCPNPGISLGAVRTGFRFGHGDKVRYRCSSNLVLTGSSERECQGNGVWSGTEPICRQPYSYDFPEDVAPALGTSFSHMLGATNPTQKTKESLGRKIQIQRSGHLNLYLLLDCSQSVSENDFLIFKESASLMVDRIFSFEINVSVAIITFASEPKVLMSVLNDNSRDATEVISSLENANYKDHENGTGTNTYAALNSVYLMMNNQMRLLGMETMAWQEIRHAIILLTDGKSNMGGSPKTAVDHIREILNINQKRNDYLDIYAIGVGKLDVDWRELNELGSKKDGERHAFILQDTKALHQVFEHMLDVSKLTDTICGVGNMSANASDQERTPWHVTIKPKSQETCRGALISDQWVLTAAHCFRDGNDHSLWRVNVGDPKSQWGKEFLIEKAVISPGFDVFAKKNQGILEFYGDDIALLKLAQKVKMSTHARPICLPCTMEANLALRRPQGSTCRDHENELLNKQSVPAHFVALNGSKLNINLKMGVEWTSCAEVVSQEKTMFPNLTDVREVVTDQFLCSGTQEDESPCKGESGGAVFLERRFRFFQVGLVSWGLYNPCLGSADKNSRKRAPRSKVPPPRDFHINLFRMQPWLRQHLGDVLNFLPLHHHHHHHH

The target in a further assay is T3, human C2 D419A (human, UniProt P06681 21-752).
T3 sequence: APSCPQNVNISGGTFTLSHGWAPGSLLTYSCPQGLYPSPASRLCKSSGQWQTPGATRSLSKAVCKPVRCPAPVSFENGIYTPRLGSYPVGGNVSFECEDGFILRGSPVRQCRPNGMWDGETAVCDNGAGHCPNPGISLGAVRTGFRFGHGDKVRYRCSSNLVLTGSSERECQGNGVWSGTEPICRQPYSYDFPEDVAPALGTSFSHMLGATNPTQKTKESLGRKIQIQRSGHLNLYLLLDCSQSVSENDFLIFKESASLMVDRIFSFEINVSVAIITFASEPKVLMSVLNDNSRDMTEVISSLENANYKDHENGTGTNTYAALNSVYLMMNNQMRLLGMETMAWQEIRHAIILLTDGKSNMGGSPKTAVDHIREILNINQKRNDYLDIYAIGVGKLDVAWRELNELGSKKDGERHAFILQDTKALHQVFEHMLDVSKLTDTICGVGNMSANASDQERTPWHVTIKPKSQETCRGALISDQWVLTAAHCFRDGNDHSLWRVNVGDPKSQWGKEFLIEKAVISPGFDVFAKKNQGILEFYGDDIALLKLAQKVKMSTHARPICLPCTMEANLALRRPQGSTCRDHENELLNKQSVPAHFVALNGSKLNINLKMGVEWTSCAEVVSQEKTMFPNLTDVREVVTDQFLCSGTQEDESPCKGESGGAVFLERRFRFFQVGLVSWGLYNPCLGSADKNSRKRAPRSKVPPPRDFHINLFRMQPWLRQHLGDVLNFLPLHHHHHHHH

The target in the next assay is T4, human C2 A470S (human, UniProt P06681 21-752).
T4 sequence: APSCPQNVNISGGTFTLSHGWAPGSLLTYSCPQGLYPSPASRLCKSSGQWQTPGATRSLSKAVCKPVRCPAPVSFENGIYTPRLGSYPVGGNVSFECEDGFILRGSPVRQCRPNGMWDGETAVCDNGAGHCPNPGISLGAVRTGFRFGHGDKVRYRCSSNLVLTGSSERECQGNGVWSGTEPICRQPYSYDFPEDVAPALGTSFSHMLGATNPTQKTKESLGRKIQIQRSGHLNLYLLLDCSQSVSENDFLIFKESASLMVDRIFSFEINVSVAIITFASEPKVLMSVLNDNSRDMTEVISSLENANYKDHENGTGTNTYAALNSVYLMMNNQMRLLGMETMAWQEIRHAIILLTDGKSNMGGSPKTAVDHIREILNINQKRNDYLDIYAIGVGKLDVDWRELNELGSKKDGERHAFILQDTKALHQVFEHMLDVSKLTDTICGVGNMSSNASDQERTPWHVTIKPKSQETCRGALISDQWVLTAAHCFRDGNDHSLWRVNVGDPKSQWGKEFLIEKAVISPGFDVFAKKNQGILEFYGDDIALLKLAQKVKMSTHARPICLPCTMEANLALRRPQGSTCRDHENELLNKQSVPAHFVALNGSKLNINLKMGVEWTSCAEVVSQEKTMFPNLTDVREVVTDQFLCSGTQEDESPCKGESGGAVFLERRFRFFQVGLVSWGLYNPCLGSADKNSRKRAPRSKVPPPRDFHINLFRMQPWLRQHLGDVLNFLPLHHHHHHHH

B1: RF16-226 (antibody, human IgG4 S228P, lambda)
heavy: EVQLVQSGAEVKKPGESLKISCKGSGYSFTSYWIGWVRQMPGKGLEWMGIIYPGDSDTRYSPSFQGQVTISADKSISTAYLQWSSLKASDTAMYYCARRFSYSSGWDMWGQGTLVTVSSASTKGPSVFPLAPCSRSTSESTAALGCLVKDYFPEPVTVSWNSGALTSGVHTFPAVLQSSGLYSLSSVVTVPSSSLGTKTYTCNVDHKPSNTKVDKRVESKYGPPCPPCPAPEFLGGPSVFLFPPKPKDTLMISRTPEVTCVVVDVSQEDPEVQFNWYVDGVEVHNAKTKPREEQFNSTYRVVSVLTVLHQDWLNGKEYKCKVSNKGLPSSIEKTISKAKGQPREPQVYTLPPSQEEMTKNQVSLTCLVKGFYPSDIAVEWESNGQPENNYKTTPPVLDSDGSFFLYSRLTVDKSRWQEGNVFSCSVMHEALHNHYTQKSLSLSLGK
light: SYELTQPPSVSVSPGQTARITCSGDALTSKYVAWYQQKSGLAPLLVIYEDTRRPSGIPAKFSGSSSGSVATLTISGAHGDDEADYYCYSTDASGHQRVFGGGTKLTVLSQPKAAPSVTLFPPSSEELQANKATLVCLISDFYPGAVTVAWKADGSPVKAGVETTKPSKQSNNKYAASSYLSLTPEQWKSHRSYSCQVTHEGSTVEKTVAPTECS
notes: pH-dependent anti-C2 antibody from a phage display library; also called WT
B1: the Fold diff with human C2 F689A was 1 fold; in the assay with human C2 M316A, 1 fold; with human C2 D419A, 2 fold; in the assay with human C2 A470S, 1 fold.

For the origin of these results see patent publication US20220332804A1 (CSL INNOVATION, published 2022).
